# Data as given in US7256012B2, “Fluorogenic protease substrates based on dye-dimerization” (3M Innovative Properties Company, priority 1997, dated 2007).
# Target: T1, trypsin (Bos taurus, UniProt P00760)
# T1 construct: gene PRSS1
# T1 sequence (P00760 24-246): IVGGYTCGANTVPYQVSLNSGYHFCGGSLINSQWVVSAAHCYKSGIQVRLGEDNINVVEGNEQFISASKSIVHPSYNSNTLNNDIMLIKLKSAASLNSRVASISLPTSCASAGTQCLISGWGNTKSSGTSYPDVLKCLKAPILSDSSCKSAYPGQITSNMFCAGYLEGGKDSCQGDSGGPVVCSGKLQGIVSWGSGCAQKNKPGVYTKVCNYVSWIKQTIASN
# Experiment: Hydrolysis of fluorogenic protease substrate by purified enzyme (trypsin), fluorescence intensity
# Type: biochemical
# Conditions: for Average ratio w/ trypsin to w/o trypsin: average over emission 570-585 nm
# Procedure: Enzymatic hydrolysis of the substrate from Example 1 was carried out in 50 mM carbonate buffer, pH 8.9 at room temperature. Fluorescence intensity of the solution prior to treatment with trypsin and after treatment with trypsin is shown in Table 1, for excitation wavelengths of 360 nm, 522 nm, 530 nm, and 553 nm, respectively. […] This is a characteristic of dye dimerization or stacking, as described above. […] Both the fluorescence and absorption results provided convincing evidence that ground-state interactions existed between dye molecules in the conjugate and became diminished after enzymatic cleavage.
# [1] = Excitation 530 nm, emission 570 nm
# [2] = Excitation 530 nm, emission 571 nm
# [3] = Excitation 530 nm, emission 572 nm
# [4] = Excitation 530 nm, emission 573 nm
# [5] = Excitation 530 nm, emission 574 nm
# [6] = Excitation 530 nm, emission 575 nm
# [7] = Excitation 530 nm, emission 576 nm
# [8] = Excitation 530 nm, emission 577 nm
# [9] = Excitation 530 nm, emission 578 nm
# [10] = Excitation 530 nm, emission 579 nm
# [11] = Excitation 530 nm, emission 580 nm
# [12] = Excitation 530 nm, emission 581 nm
# [13] = Excitation 530 nm, emission 582 nm
# [14] = Excitation 530 nm, emission 583 nm
# [15] = Excitation 530 nm, emission 584 nm
# [16] = Excitation 530 nm, emission 585 nm
# [17] = Excitation 553 nm, emission 570 nm
# [18] = Excitation 553 nm, emission 571 nm
# [19] = Excitation 553 nm, emission 572 nm
# [20] = Excitation 553 nm, emission 573 nm
# [21] = Excitation 553 nm, emission 574 nm
# [22] = Excitation 553 nm, emission 575 nm
# [23] = Excitation 553 nm, emission 576 nm
# [24] = Excitation 553 nm, emission 577 nm
# [25] = Excitation 553 nm, emission 578 nm
# [26] = Excitation 553 nm, emission 579 nm
# [27] = Excitation 553 nm, emission 580 nm
# [28] = Excitation 553 nm, emission 581 nm
# [29] = Excitation 553 nm, emission 582 nm
# [30] = Excitation 553 nm, emission 583 nm
# [31] = Excitation 553 nm, emission 584 nm
# [32] = Excitation 553 nm, emission 585 nm
substance,measurement,setting,value
TMR-Val-Pro-Arg-Gly-Lys-TMR (XPRGX; not fully specified; TMR dye at both ends) [T-VPRGK-T],Average ratio w/ trypsin to w/o trypsin,Excitation 530 nm,27
same,Fluorescence intensity w/ trypsin,[1],46615
same,Fluorescence intensity w/o trypsin,[1],1687
same,ratio w/ trypsin to w/o trypsin,[1],28
same,Fluorescence intensity w/ trypsin,[2],48314
same,Fluorescence intensity w/o trypsin,[2],1718
same,ratio w/ trypsin to w/o trypsin,[2],28
same,Fluorescence intensity w/ trypsin,[3],49955
same,Fluorescence intensity w/o trypsin,[3],1819
same,ratio w/ trypsin to w/o trypsin,[3],27
same,Fluorescence intensity w/ trypsin,[4],50871
same,Fluorescence intensity w/o trypsin,[4],1844
same,ratio w/ trypsin to w/o trypsin,[4],28
same,Fluorescence intensity w/ trypsin,[5],52163
same,Fluorescence intensity w/o trypsin,[5],1904
same,ratio w/ trypsin to w/o trypsin,[5],27
same,Fluorescence intensity w/ trypsin,[6],52681
same,Fluorescence intensity w/o trypsin,[6],1895
same,ratio w/ trypsin to w/o trypsin,[6],28
same,Fluorescence intensity w/ trypsin,[7],52855
same,Fluorescence intensity w/o trypsin,[7],1968
same,ratio w/ trypsin to w/o trypsin,[7],27
same,Fluorescence intensity w/ trypsin,[8],53752
same,Fluorescence intensity w/o trypsin,[8],1939
same,ratio w/ trypsin to w/o trypsin,[8],28
same,Fluorescence intensity w/ trypsin,[9],53611
same,Fluorescence intensity w/o trypsin,[9],1970
same,ratio w/ trypsin to w/o trypsin,[9],27
same,Fluorescence intensity w/ trypsin,[10],53534
same,Fluorescence intensity w/o trypsin,[10],2026
same,ratio w/ trypsin to w/o trypsin,[10],26
same,Fluorescence intensity w/ trypsin,[11],53414
same,Fluorescence intensity w/o trypsin,[11],1973
same,ratio w/ trypsin to w/o trypsin,[11],27
same,Fluorescence intensity w/ trypsin,[12],53190
same,Fluorescence intensity w/o trypsin,[12],1985
same,ratio w/ trypsin to w/o trypsin,[12],27
same,Fluorescence intensity w/ trypsin,[13],52569
same,Fluorescence intensity w/o trypsin,[13],1948
same,ratio w/ trypsin to w/o trypsin,[13],27
same,Fluorescence intensity w/ trypsin,[14],51719
same,Fluorescence intensity w/o trypsin,[14],1926
same,ratio w/ trypsin to w/o trypsin,[14],27
same,Fluorescence intensity w/ trypsin,[15],50705
same,Fluorescence intensity w/o trypsin,[15],1905
same,ratio w/ trypsin to w/o trypsin,[15],27
same,Fluorescence intensity w/ trypsin,[16],49629
same,Fluorescence intensity w/o trypsin,[16],1820
same,ratio w/ trypsin to w/o trypsin,[16],27
same,Average ratio w/ trypsin to w/o trypsin,Excitation 553 nm,25
same,Fluorescence intensity w/ trypsin,[17],82385
same,Fluorescence intensity w/o trypsin,[17],3301
same,ratio w/ trypsin to w/o trypsin,[17],25
same,Fluorescence intensity w/ trypsin,[18],85120
same,Fluorescence intensity w/o trypsin,[18],3402
same,ratio w/ trypsin to w/o trypsin,[18],25
same,Fluorescence intensity w/ trypsin,[19],87845
same,Fluorescence intensity w/o trypsin,[19],3457
same,ratio w/ trypsin to w/o trypsin,[19],25
same,Fluorescence intensity w/ trypsin,[20],89719
same,Fluorescence intensity w/o trypsin,[20],3658
same,ratio w/ trypsin to w/o trypsin,[20],25
same,Fluorescence intensity w/ trypsin,[21],91555
same,Fluorescence intensity w/o trypsin,[21],3649
same,ratio w/ trypsin to w/o trypsin,[21],25
same,Fluorescence intensity w/ trypsin,[22],93001
same,Fluorescence intensity w/o trypsin,[22],3802
same,ratio w/ trypsin to w/o trypsin,[22],24
same,Fluorescence intensity w/ trypsin,[23],94046
same,Fluorescence intensity w/o trypsin,[23],3827
same,ratio w/ trypsin to w/o trypsin,[23],25
same,Fluorescence intensity w/ trypsin,[24],94816
same,Fluorescence intensity w/o trypsin,[24],3816
same,ratio w/ trypsin to w/o trypsin,[24],25
same,Fluorescence intensity w/ trypsin,[25],94516
same,Fluorescence intensity w/o trypsin,[25],3806
same,ratio w/ trypsin to w/o trypsin,[25],25
same,Fluorescence intensity w/ trypsin,[26],94662
same,Fluorescence intensity w/o trypsin,[26],3962
same,ratio w/ trypsin to w/o trypsin,[26],24
same,Fluorescence intensity w/ trypsin,[27],93715
same,Fluorescence intensity w/o trypsin,[27],3695
same,ratio w/ trypsin to w/o trypsin,[27],25
same,Fluorescence intensity w/ trypsin,[28],93189
same,Fluorescence intensity w/o trypsin,[28],3825
same,ratio w/ trypsin to w/o trypsin,[28],24
same,Fluorescence intensity w/ trypsin,[29],92281
same,Fluorescence intensity w/o trypsin,[29],3736
same,ratio w/ trypsin to w/o trypsin,[29],25
same,Fluorescence intensity w/ trypsin,[30],91125
same,Fluorescence intensity w/o trypsin,[30],3724
same,ratio w/ trypsin to w/o trypsin,[30],24
same,Fluorescence intensity w/ trypsin,[31],89415
same,Fluorescence intensity w/o trypsin,[31],3593
same,ratio w/ trypsin to w/o trypsin,[31],25
same,Fluorescence intensity w/ trypsin,[32],87910
same,Fluorescence intensity w/o trypsin,[32],3449
same,ratio w/ trypsin to w/o trypsin,[32],25
same,fluorescence intensity of the cleaved substrate solution relative to the intact substrate solution (maximum),"excitation 360-553 nm, emission wavelengths from 570 to 585 nm",≤ 29 times
